To fix the notation:
B1: Pistol ribozyme (parent)
chain: GGGUCGUUGUUCCAUAAUCGCGUGGAUAUGGCACGCAAGUUUCUACCGGGCACCGUAAAUGUCCGACUGGAGCCGUUCGGGCGGCUAUAAACAGACCUCAGGCCCGAAGCGUGGCGGCACCUGCCGCCGGUGGUAAAAAAGAUCGGAAGAGCACACGUCU

The variants in the series derive from B1. In words: aptazyme ON/OFF ratio, guanine; higher = stronger switching; co-transcriptional cleavage with and without guanine.
In the case of GGGUCGUAAGCAGAUAAUCGCGUGGAUAUGGCACGCAAGUUUCUACCGGGCACCGUAAAUGUCCGACUGGAGCCGUUCGGGCGGCUAUAAACAGACCUCAGGCCCGAAGCGUGGCGGCACCUGCCGCCGGUGGUAAAAAAGAUCGGAAGAGCACACGUCU [U8A G9A U10G U11C C12A C13G], the “aptazyme ON/OFF ratio” value is 1.08. Then GGGUCGUAAGCAUAUAAUCGCGUGGAUAUGGCACGCAAGUUUCUACCGGGCACCGUAAAUGUCCGACUGGAGCCGUUCGGGCGGCUAUAAACAGACCUCAGGCCCGAAGCGUGGCGGCACCUGCCGCCGGUGGUAAAAAAGAUCGGAAGAGCACACGUCU [U8A G9A U10G U11C C12A C13U], with 1.16; and GGGUCGUAAGCAAAUAAUCGCGUGGAUAUGGCACGCAAGUUUCUACCGGGCACCGUAAAUGUCCGACUGGAGCCGUUCGGGCGGCUAUAAACAGACCUCAGGCCCGAAGCGUGGCGGCACCUGCCGCCGGUGGUAAAAAAGAUCGGAAGAGCACACGUCU [U8A G9A U10G U11C C12A C13A], with 1.12.

Consider GGGUCGUAAGAGAAUAAUCGCGUGGAUAUGGCACGCAAGUUUCUACCGGGCACCGUAAAUGUCCGACUGGAGCCGUUCGGGCGGCUAUAAACAGACCUCAGGCCCGAAGCGUGGCGGCACCUGCCGCCGGUGGUAAAAAAGAUCGGAAGAGCACACGUCU [U8A G9A U10G U11A C12G C13A], for which the “aptazyme ON/OFF ratio” value came to 1.24. Then GGGUCGUAAGAGGAUAAUCGCGUGGAUAUGGCACGCAAGUUUCUACCGGGCACCGUAAAUGUCCGACUGGAGCCGUUCGGGCGGCUAUAAACAGACCUCAGGCCCGAAGCGUGGCGGCACCUGCCGCCGGUGGUAAAAAAGAUCGGAAGAGCACACGUCU [U8A G9A U10G U11A C12G C13G], with 1.19. As to GGGUCGUAAGAGUAUAAUCGCGUGGAUAUGGCACGCAAGUUUCUACCGGGCACCGUAAAUGUCCGACUGGAGCCGUUCGGGCGGCUAUAAACAGACCUCAGGCCCGAAGCGUGGCGGCACCUGCCGCCGGUGGUAAAAAAGAUCGGAAGAGCACACGUCU [U8A G9A U10G U11A C12G C13U], the “aptazyme ON/OFF ratio” value came out at 1.12.

GGGUCGUAAGAAUAUAAUCGCGUGGAUAUGGCACGCAAGUUUCUACCGGGCACCGUAAAUGUCCGACUGGAGCCGUUCGGGCGGCUAUAAACAGACCUCAGGCCCGAAGCGUGGCGGCACCUGCCGCCGGUGGUAAAAAAGAUCGGAAGAGCACACGUCU [U8A G9A U10G U11A C12A C13U]: the “aptazyme ON/OFF ratio” value worked out at 1.25.

For GGGUCGUAAGAAGAUAAUCGCGUGGAUAUGGCACGCAAGUUUCUACCGGGCACCGUAAAUGUCCGACUGGAGCCGUUCGGGCGGCUAUAAACAGACCUCAGGCCCGAAGCGUGGCGGCACCUGCCGCCGGUGGUAAAAAAGAUCGGAAGAGCACACGUCU [U8A G9A U10G U11A C12A C13G], the “aptazyme ON/OFF ratio” value is 1.24.

On to GGGUCGUAAGAAAAUAAUCGCGUGGAUAUGGCACGCAAGUUUCUACCGGGCACCGUAAAUGUCCGACUGGAGCCGUUCGGGCGGCUAUAAACAGACCUCAGGCCCGAAGCGUGGCGGCACCUGCCGCCGGUGGUAAAAAAGAUCGGAAGAGCACACGUCU [U8A G9A U10G U11A C12A C13A], for which the “aptazyme ON/OFF ratio” value worked out at 1.19. GGGUCGUAAGUGGAUAAUCGCGUGGAUAUGGCACGCAAGUUUCUACCGGGCACCGUAAAUGUCCGACUGGAGCCGUUCGGGCGGCUAUAAACAGACCUCAGGCCCGAAGCGUGGCGGCACCUGCCGCCGGUGGUAAAAAAGAUCGGAAGAGCACACGUCU [U8A G9A U10G C12G C13G]: the “aptazyme ON/OFF ratio” value came to 1.1.

Regarding GGGUCGUAAGUGAAUAAUCGCGUGGAUAUGGCACGCAAGUUUCUACCGGGCACCGUAAAUGUCCGACUGGAGCCGUUCGGGCGGCUAUAAACAGACCUCAGGCCCGAAGCGUGGCGGCACCUGCCGCCGGUGGUAAAAAAGAUCGGAAGAGCACACGUCU [U8A G9A U10G C12G C13A], the “aptazyme ON/OFF ratio” value was found to be 1.14.

For the variant GGGUCGUAAGUGUAUAAUCGCGUGGAUAUGGCACGCAAGUUUCUACCGGGCACCGUAAAUGUCCGACUGGAGCCGUUCGGGCGGCUAUAAACAGACCUCAGGCCCGAAGCGUGGCGGCACCUGCCGCCGGUGGUAAAAAAGAUCGGAAGAGCACACGUCU [U8A G9A U10G C12G C13U], the “aptazyme ON/OFF ratio” value amounted to 1.26. Take GGGUCGUAAGACAAUAAUCGCGUGGAUAUGGCACGCAAGUUUCUACCGGGCACCGUAAAUGUCCGACUGGAGCCGUUCGGGCGGCUAUAAACAGACCUCAGGCCCGAAGCGUGGCGGCACCUGCCGCCGGUGGUAAAAAAGAUCGGAAGAGCACACGUCU [U8A G9A U10G U11A C13A]: the “aptazyme ON/OFF ratio” value turned out to be 1.03. Then GGGUCGUAAGACUAUAAUCGCGUGGAUAUGGCACGCAAGUUUCUACCGGGCACCGUAAAUGUCCGACUGGAGCCGUUCGGGCGGCUAUAAACAGACCUCAGGCCCGAAGCGUGGCGGCACCUGCCGCCGGUGGUAAAAAAGAUCGGAAGAGCACACGUCU [U8A G9A U10G U11A C13U], with 1.06; and GGGUCGUAAGACGAUAAUCGCGUGGAUAUGGCACGCAAGUUUCUACCGGGCACCGUAAAUGUCCGACUGGAGCCGUUCGGGCGGCUAUAAACAGACCUCAGGCCCGAAGCGUGGCGGCACCUGCCGCCGGUGGUAAAAAAGAUCGGAAGAGCACACGUCU [U8A G9A U10G U11A C13G], with 1.02. Then GGGUCGUAAGAUGAUAAUCGCGUGGAUAUGGCACGCAAGUUUCUACCGGGCACCGUAAAUGUCCGACUGGAGCCGUUCGGGCGGCUAUAAACAGACCUCAGGCCCGAAGCGUGGCGGCACCUGCCGCCGGUGGUAAAAAAGAUCGGAAGAGCACACGUCU [U8A G9A U10G U11A C12U C13G], with 1.07; and GGGUCGUAAGAUUAUAAUCGCGUGGAUAUGGCACGCAAGUUUCUACCGGGCACCGUAAAUGUCCGACUGGAGCCGUUCGGGCGGCUAUAAACAGACCUCAGGCCCGAAGCGUGGCGGCACCUGCCGCCGGUGGUAAAAAAGAUCGGAAGAGCACACGUCU [U8A G9A U10G U11A C12U C13U], with 0.98. Take GGGUCGUAAGAUAAUAAUCGCGUGGAUAUGGCACGCAAGUUUCUACCGGGCACCGUAAAUGUCCGACUGGAGCCGUUCGGGCGGCUAUAAACAGACCUCAGGCCCGAAGCGUGGCGGCACCUGCCGCCGGUGGUAAAAAAGAUCGGAAGAGCACACGUCU [U8A G9A U10G U11A C12U C13A]: the “aptazyme ON/OFF ratio” value was 1.12.

The record behind these values is the RNAGym collection of RNA variant scans (doi:10.1021/acssynbio.7b00057).
